13 molecules from patent US20240294670A1 (University of Texas, published 2024) can be followed below.

One may read the Kd as a measure of binding affinity in units of concentration. What is called koff is the rate constant with which the complex falls apart. One may read the kon as the second-order rate constant of association.

The target of test [1] is T1, recombinant mouse CHI3L1 (mouse, UniProt Q61362 30-389, limits assumed).
T1 construct: His-tagged; also called mCHI3L1; mChi3l1
The experiment in a line: BLI (Octet), mAb on protein A sensor, CHI3L1 in solution, 1:1 fit. As for the experimental part: FIG. 8. Kinetic binding sensorgrams collected on Octet instrument for determination of kon and koff rates for each CHI3L1 antibody.
Binding affinity of anti-CHI3L1 monoclonal antibodies determined using Bio-layer interferometry (BLI), a sensor-based Octet instrument. […] Following by kinetics buffer washing to baseline, the loaded biosensors were exposed to a series of recombinant CHI3L1 protein at 0.1-200 nM range and background subtraction was used to correct for any background from sensor drifting. All experiments were performed with shaking at 1,000 rpm. Background wavelength shifts were measured from reference biosensors that were loaded with antibody and followed with buffer without antigen. ForteBio's data analysis software was used to fit the data to a 1:1 binding model to extract an association rate and dissociation rate. The KD was calculated using the ratio of koff/kon and the estimated values of KD for CHI3L1 mAbs in Table C.
On the technique in general: Biolayer interferometry detects binding as a change in optical thickness at a sensor tip.

A further test deals with T2, recombinant human CHI3L1 (human, UniProt P36222 22-383).
T2 construct: His-tagged recombinant protein (Sino Biological 11227-H08H, or in-house HEK293 protein with 6xHIS-tag and avi-tag); also called hCHI3L1; hChi3l1
The experiment in a line: ELISA: human CHI3L1 coated on the plate, B cell culture supernatant 100 ul/well, A450. As for the experimental part: (§1) FIG. 7. The ELISA binding of the supernatant antibody to the human CHI3L1. (hCHI3L1), and mouse CHI3L1 (mCHI3L1). The CHI3L1 protein was coated on maxi-sorp 96-well plates, cell culture supernatant (100 ul/well) was used for binding on the antigen coated plate. Binding signals (A450 nm) are shown in Y-axis and CHI3L1 mAbs are shown on X-axis.
(§2) Binding affinity of anti-CHI3L1 monoclonal antibodies to the CHI3L1 protein using ELISA method. Binding of CHI3L1 by monoclonal antibodies was first screened by ELISA using supernatants collected from the B cell cultures and cross reactivity to mouse CHI3L1 protein was determined (FIG. 7).
A general note: An ELISA detects its analyte on a solid surface through an enzyme-linked reagent.

Test [2] concerns the target T1, recombinant mouse CHI3L1. In words: ELISA: mouse CHI3L1 coated on the plate, B cell culture supernatant 100 ul/well, A450. As for the experimental part:
as §1, §2

T1 sequence (Q61362 30-389 limits assumed): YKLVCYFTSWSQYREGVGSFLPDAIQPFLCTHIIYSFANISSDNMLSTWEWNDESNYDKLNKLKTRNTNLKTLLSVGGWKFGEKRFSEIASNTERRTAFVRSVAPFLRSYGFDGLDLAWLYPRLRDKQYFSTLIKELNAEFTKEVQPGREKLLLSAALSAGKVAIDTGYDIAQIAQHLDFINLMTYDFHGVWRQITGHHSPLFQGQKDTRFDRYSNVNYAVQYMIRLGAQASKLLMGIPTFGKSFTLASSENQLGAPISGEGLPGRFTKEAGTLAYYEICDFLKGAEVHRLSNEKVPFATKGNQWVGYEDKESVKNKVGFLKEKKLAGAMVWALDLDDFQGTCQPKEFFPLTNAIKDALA
T2 sequence (P36222 22-383 limits assumed): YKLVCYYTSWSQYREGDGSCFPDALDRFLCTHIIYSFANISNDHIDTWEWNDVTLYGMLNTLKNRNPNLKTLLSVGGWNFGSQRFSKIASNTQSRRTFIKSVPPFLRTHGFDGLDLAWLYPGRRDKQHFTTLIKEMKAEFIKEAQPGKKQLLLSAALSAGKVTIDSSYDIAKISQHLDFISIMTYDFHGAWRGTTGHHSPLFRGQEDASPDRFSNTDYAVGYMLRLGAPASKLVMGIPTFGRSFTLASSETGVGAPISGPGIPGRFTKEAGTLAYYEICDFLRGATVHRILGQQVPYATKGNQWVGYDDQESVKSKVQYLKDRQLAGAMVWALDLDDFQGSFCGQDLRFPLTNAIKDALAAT

B1: anti-CHI3L1 monoclonal antibody C57 (antibody, V domains shown)
VH: QSVEESGGGLVQPGGSLTLTCKASGFSFSSGYWMCWVRQAPGKGLEWIACIGASYGGTFYASWAKGRFTISKTSSTTVTLQMTSLTAADTATYFCTRDDGGLDNPNLWGPGTLVTVSS
VL: DPVLTQTPASVEAAVGGTVTIKCQASQSIGSILAWYQQKPGQPPHLLIYAAAKLASGVPSRFKGSGSGTQFTLTISGVECDDAATYYCQSYYYSVTTSYSNSFGGGTEVVVK
notes: Rabbit mAb from single B cells, expressed as full length IgG in HEK293
For B1, in the test with recombinant mouse CHI3L1 [1], the Kd was 4.09 nM, the off-rate (koff) came to 0.000223 s⁻¹ and the association rate constant (kon) is 54500 M⁻¹ s⁻¹. For the same molecule, the binding result in the test with recombinant human CHI3L1 is “no binding”.

B2: anti-CHI3L1 monoclonal antibody C55 (antibody, V domains shown)
VH: QSVKESGGDLVKPGASLTLTCTASGFSFSSDYDIYWVRQAPGKGLEWIAWIDGGSSGEIYANWAKGRFTISKTSSTTVTLQMTSLTAADTAAYFCARCIWSHNYYDLWGPGTLVTVSS
VL: AIKMTQTPSSVSAAVGGTVTINCQASEDIENYLAWYQQKPGQPPKLLIYRASTLASGVSSRFKGSGSGTEFTLTISDLECADAATYWCQQGYSGSNVDNFFGGGTKVVVE
notes: Rabbit mAb from single B cells, expressed as full length IgG in HEK293; also called clone 55
Turning to B2, in the test with recombinant mouse CHI3L1 [1], the Kd turned out to be 1.22 nM, the off-rate constant (koff) was determined as 0.000141 s⁻¹ and the kon was determined as 115000 M⁻¹ s⁻¹.

B3: anti-CHI3L1 monoclonal antibody C61 (antibody, V domains shown)
VH: QEQLEESGGDLVKPEGSLTLTCTASGFSFSSSYWICWVRQAPGKGLEWIACIYAGGSGSTYYASWAKGRFTISKTSSTTVTLQMTSLTAADAATYFCARDGVSGSGWFFNLWGPGTLVTVSS
VL: DVVMTQTPASVSEPVGGTVTIKCQASQSISSYLTWYQQKPGQPPKLLIYKASTLASGVSSRFKGSGSGTEFTLTISDLECADAATYYCQSSYYGPSDVDFSPFGGGTEVEIK
notes: as for B1
Regarding B3, in the test with recombinant mouse CHI3L1 [1], the equilibrium dissociation constant (Kd) amounted to 2.81 nM, the koff was determined as 0.000201 s⁻¹ and the on-rate constant (kon) came to 71500 M⁻¹ s⁻¹. Besides, the binding result in the test with recombinant human CHI3L1 is given as “no binding”.

B4: anti-CHI3L1 monoclonal antibody C18 (antibody, V domains shown)
VH: KQLVEESGGDLVRPEGSLTLTCKGSGFDFSRNAMCWVRQAPGKGLEWIACIYVGSGGGTYYATWAKGRFTISKTSSTTVTLQMTSLTAADTATYFCAGSPYSGYGYFNLWGPGTLVTVSS
VL: DPMLTQTPASVSEPVGGTVTIKCQASQSISTALAWYQQKPGQPPKLLIYRASILASGVPSRFKGSGSGTEFTLTISDLECADAATYYCQSYYDSSAGNTFGGGTKVEIK
notes: Rabbit mAb
Regarding B4, the binding result is listed as “binds” in the test with recombinant human CHI3L1 and “no binding” with recombinant mouse CHI3L1 [2].

B5: C22 (antibody, V domains shown)
VH: QLVEESGGGLVKPGAPLTLTCTLSGFSFSSGYYMCWVRQAPGKGLEWIACIYGAVSDRIYFASWAKGRFTMSRPSSTTVTLQMTSLTAADTATYFCARDSYSGSTYYRSYYFNLWGPGTLVTVSS
VL: DPVLTQTPASVSAAVGGTVTISCQSNENIYVDKYLSWYQQKPGQPPKGLIYSASTLASGVPSRFRGSGSGTQFTLTISDVQCDDAATYYCAGSFSSSDSCAFGGGTEVVVK
notes: also called anti-CHI3L1 monoclonal antibody C22
With B5, the figures for the binding result with recombinant human CHI3L1 and in the test with recombinant mouse CHI3L1 [2] were “binds” and “no binding”, respectively.

B6: anti-CHI3L1 monoclonal antibody C15 (antibody, V domains shown)
VH: QSVKESGGGLVQPEGSLTLTCTASGFDFSSNAMCWVRQAPGKGPEWIACIYNGDASTYYASWAKGRSTISKTSSTTVTLQMTSLTAADTATYFCARCFNRFYRGDLWGPGTLVTVSS
VL: DPMLTQTPSSVSAAVGGTVSISCQSSQSVYDNDWLSWYQQKPGQPPKLLIYDASKLASGVPSRFKGSGSGTQFTLTISDVQCDAAATYYCAGDYINTIDNAFGGGTEVVVK
notes: Rabbit mAb
Turning to B6, the binding result in the test with recombinant human CHI3L1 and with recombinant mouse CHI3L1 [2] was “binds” each time.

B7: anti-CHI3L1 monoclonal antibody C64 (antibody, V domains shown)
VH: QSVEESGGDLVKPGASLTLTCTASGFSFSNNYWICWIRQAPGKGLEWIACIYAGDTGTAYYANWAKGRFTISKTSSTTVTLQMTSLTAADTATYFCARDGDGVGNGGTFALWGPGTLVTVSS
VL: ALVMTQTPASVEAAVGGTVTIRCQASERIGNALAWYQQKPGQPPKLLIYQTSKLTSGVPSRFKGSGSGTEHTLTISDLECADAATYYCQSYYYTGSISYEFGGGTKVVVE
notes: as for B1
Consider B7, for which, in the test with recombinant mouse CHI3L1 [1], the dissociation constant Kd is 0.254 nM, the off-rate constant (koff) is 2.71e-05 s⁻¹ and the association rate constant (kon) was 107000 M⁻¹ s⁻¹. Further, the binding result with recombinant human CHI3L1 is reported as “no binding”.

B8: anti-CHI3L1 monoclonal antibody C65 (antibody, V domains shown)
VH: QSVEESGGGLVQPEGSLTLTCTASGFSFSSSYYMCWVRQAPGKGLEWIACIFTGGVSTYYASWVNGRFTISKTSSTTVTLQMTSLTAADTATYFCARTYTAGFTGDNYFNLWGPGTLVTVSS
VL: AQVLTQTPASVEAAVGGTVTIKCQASQSISSYLAWYQQKPGQPPKLLIYRASTLASGVPSRFKGSGSGTEFTLTISDLECADAATYYCQSDYYSSSSNNGFVFGGGTEVVVK
notes: as for B1
For B8, in the test with recombinant mouse CHI3L1 [1], the Kd amounted to 6 nM, the dissociation rate constant (koff) was 0.000756 s⁻¹ and the kon was determined as 126000 M⁻¹ s⁻¹.

B9: anti-CHI3L1 monoclonal antibody C68 (antibody, V domains shown)
VH: QSVEESGGDLVKPGASLTLTCTASGFSFSGPYWISWVRQAPGRGLEWIASIGARSSGSTHYASWAKGRFTISKTASTTVTLQMTSLTAADTATYFCARSYPAYAGDGYALYYFNLWGPGTLVTVSS
VL: DVVMTQTPASVSAAVGGTVTIKCQASEDIYSLLAWYQQKPGQPPKFLIYDASDLASGVPSRFSGSGSGTEYTLTINDLKCDDAATYYCQGGYYSGDGTDIPFGGGTELEIL
notes: as for B1
Turning to B9, in the test with recombinant mouse CHI3L1 [1], the Kd stood at 0.799 nM, the koff was found to be 0.00011 s⁻¹ and the kon came out at 138000 M⁻¹ s⁻¹. Also, the binding result with recombinant human CHI3L1 is listed as “no binding”.

B10: anti-CHI3L1 monoclonal antibody C30 (antibody, V domains shown)
VH: QEQLVESGGGLVTPGGTLTLTCTASGFDFSSYYYMCWVRQAPGKGLELIAAIDTGSGETYYASWANGRFTISKTSSTTVTLQMTSLTAADTATYFCARDPYFGTNLWGPGTLVTVSS
VL: DPMLTQTPSPVSAAVGGTVTITCQASQSVYNNNYLSWFQQKPGQPPKLLIYKASILASGVPSRFKGSGSGTQFTLTISDLQCDDAATYYCLGGYSSPSDDAFGGGTKVVVE
notes: Rabbit mAb
Consider B10, for which the binding result with recombinant human CHI3L1 is recorded as “binds”.

B11: anti-CHI3L1 monoclonal antibody C19 (antibody, V domains shown)
VH: QEQLVEYGGDLVQPEGSLTLTCTASGFTISSTFYMGWVRQAPGKGLEWIGDMHVGSATTTYYASWAKGRFTISKPSSTTVTLQMTSLTAADTATYFCARYVNSGYYMDSWGPGTLVTVSS
VL: AQVLTQTPASVEVAVGGTVTIKCQASQTISNLLAWYQQKPGQPPKLLIYDASTLAYGVSSRFSGSGSGTQFTLTISGVQCADAATYYCQQGWSSSNVDNVFGGGTKLEIK
notes: Rabbit mAb
In the case of B11, the binding result with recombinant human CHI3L1 is “binds”; with recombinant mouse CHI3L1 [2] it was “no binding”.

B12: anti-CHI3L1 monoclonal antibody C21 (antibody, V domains shown)
VH: QSVKESGGGLVQPEGSLTLTCTASGFSFSSSYYMCWVRQAPGKGLEWIACIYNGDGSTYYASWAKGRFTISKTSSTTVTLQMTSLTAADTATYFCARDADYAGVVLNLWGPGTLVTVSS
VL: AQVLTQTPASVEAAVGGTVTIKCQASESIGNALAWYQQKPGQPPKLLIYVASYLASGVSSRFKGSRSGTEYTLTISDLECVDAATYYCQCTWYGNVYLAFGGGTEVVVK
notes: Rabbit mAb
For the molecule B12, the figures for the binding result with recombinant human CHI3L1 and with recombinant mouse CHI3L1 [2] were “binds” and “no binding”, respectively.

B13: anti-CHI3L1 monoclonal antibody C17 (antibody, V domains shown)
VH: QSVKESGGDLVKPGASLTLTCTASGFSFSSSYWICWVRQAPGKGLEWIACIDAGSSESTYYASWAKGRFTISKTSSTTVTLQMTSLTAADTATYFCARDSRVVAGVGMYLNLWGPGTLVTVSS
VL: AIKMTQTPASVEVAVGGTVTIKCQASQSIGIYLAWYQQKPGQPPKLLIYDASDLASGVPSRFRGSGSGTQFTLTISGVECADAATYYCQQGDTIYNVDNTFGGGTKVVVE
notes: Rabbit mAb
In the case of B13, the results for the binding result with recombinant human CHI3L1 and with recombinant mouse CHI3L1 [2] were “binds” and “no binding”, respectively.
